Assay [1] concerns the target T1, recombinant human tryptase beta 1 tetramer (wild type, active) (human, UniProt Q15661 31-275). Nature of the assay: cell-based or functional assay.
For assay [2], the target named is T2, recombinant His-tagged human tryptase beta 1 monomer (human, UniProt Q15661 31-275).
T2 construct: also called His6-tagged tryptase monomer; human tryptase b1 monomer
In words: SPR, tryptase beta 1 monomer.

For assay [3], the target named is T2, recombinant His-tagged human tryptase …. Nature of the assay: SPR, tryptase beta 1 monomer. The procedure: (§1) The assay can use a BIAcore® T200 or an equivalent device. Briefly, BIAcore® Series S CM5 sensor chips (or equivalent sensor chips) are immobilized with monoclonal mouse anti-human IgG (Fc) antibody and anti-tryptase antibodies are subsequently captured on the flow cell. Serial 3-fold dilutions of the human tryptase beta 1 monomer are injected at a flow rate of 30 μl/min. Each sample is analyzed with 3 min association and 10 min dissociation. The assay is performed at 25° C. After each injection, the chip is regenerated using 3 M MgCl₂. Binding response is corrected by subtracting the response units (RU) from a flow cell capturing an irrelevant IgG at similar density. A 1:1 Languir model of simultaneous fitting of kₒₙ and koff is used for kinetics analysis.
(§2) In this experiment, all the humanized variants were expressed as IgG by transient transfection of 293 cells. IgG was purified with protein G affinity chromatography. The affinity of each variant for recombinant His-tagged human tryptase beta 1 monomer (SEQ ID NO: 128) was determined by SPR analysis using a BIAcore® T200. BIAcore® Series S CM5 sensor chips were immobilized with monoclonal mouse anti-human IgG (Fc) antibody (Human antibody capture kit from GE Healthcare) and anti-tryptase variants were subsequently captured on each flow cell. Serial 3-fold dilutions of the human tryptase beta 1 monomer were injected at a flow rate of 30 μl/min. Each sample was analyzed with 3 min association and 10 min dissociation. After each injection, the chip was regenerated using 3 M MgCl₂. Binding response was corrected by subtracting the response units (RU) from a flow cell capturing an irrelevant IgG at similar density. A 1:1 Languir model of simultaneous fitting of kₒₙ and koff was used for kinetics analysis.
This is another data set of the same source. A general note: Surface plasmon resonance follows binding to a sensor surface in real time, without labels.

Assay [4] has as its target T3, human tryptase beta 3 (human, UniProt P20231 31-275). Nature of the assay: SPR, protocol as for tryptase beta 1. The procedure: as §2
For assay [5], the target named is T3, human tryptase beta 3. Nature of the assay: cell-based or functional assay.
The target of assay [6] is T2, recombinant His-tagged human tryptase …. In words: SPR (BIAcore T200); IgG1 captured by anti-human Fc, His-tagged monomer injected. The procedure:
as §1, §2

The target of assay [7] is T1, recombinant human tryptase beta 1 …. In words: ELISA on biotinylated human tryptase beta 1 captured on NeutrAvidin, with heparin to keep the tetramer. A general note: In an ELISA, binding on a coated surface is turned into a signal by an enzyme label.

Substitutions are numbered along the chain they refer to. Numbers in names are those of the source.

T2 sequence (Q15661 other isoform, or with tags, fused parts or gaps): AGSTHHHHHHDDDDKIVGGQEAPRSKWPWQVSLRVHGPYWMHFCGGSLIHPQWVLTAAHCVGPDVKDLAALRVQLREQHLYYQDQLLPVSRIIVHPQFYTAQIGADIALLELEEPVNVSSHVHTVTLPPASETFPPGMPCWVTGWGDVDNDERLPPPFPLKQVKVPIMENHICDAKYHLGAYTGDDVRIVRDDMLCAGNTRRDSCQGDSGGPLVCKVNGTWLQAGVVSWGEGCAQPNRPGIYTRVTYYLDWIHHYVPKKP
T1 sequence (Q15661 31-275): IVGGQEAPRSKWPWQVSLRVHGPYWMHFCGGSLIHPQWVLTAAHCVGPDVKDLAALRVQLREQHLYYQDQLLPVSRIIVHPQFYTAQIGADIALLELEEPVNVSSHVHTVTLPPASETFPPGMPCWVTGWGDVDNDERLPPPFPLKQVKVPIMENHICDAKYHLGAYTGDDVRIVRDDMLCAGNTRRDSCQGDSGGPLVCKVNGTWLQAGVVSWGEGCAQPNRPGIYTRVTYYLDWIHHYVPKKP
T3 sequence (P20231 other isoform, or with tags, fused parts or gaps limits assumed): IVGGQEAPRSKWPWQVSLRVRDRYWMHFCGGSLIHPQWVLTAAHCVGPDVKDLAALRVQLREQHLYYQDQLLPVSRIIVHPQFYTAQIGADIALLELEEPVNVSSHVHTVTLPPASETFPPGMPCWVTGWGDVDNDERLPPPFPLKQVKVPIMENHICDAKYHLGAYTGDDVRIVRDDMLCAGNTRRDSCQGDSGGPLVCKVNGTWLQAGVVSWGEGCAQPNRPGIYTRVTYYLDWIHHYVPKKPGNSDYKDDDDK

B1: hu31A.v11 W100F (antibody, name in Kabat numbering, V domains shown)
VH: EVQLVESGGGLVQPGGSLRLSCAASGFTFSDYGMVWVRQAPGKGLEWVAFISSGSSTVYYADTMKGRFTISRDNSKNTLYLQMNSLRAEDTAVYYCTRRNYDDFYFDVWGQGTLVTVSS
VL: DIQMTQSPSSLSASVGDRVTITCSASSSVTYMYWYQQKPGKSPKPWIYRTSDLASGVPSRFSGSGSGTDFTLTISSLQPEDFATYYCQHYHSYPLTFGQGTKVEIK
notes: also called W100F variant
As for B1, the “IC50 as fold increase compared to hu31A.v11 wild type” value in assay [1] was 2.5 fold. Further, the “fold faster off-rate (Koff) compared to wild-type hu31A.v11” value in assay [2] is around 100 fold. In assay [3], the “KD as fold increase compared to hu31A.v11 wild type” value (shortened to “KD as fold increase”) was determined as 80 fold.

B2: hu31A.v11 W100Y (antibody, name in Kabat numbering, V domains shown)
VH: B1 VH with F104Y
VL: B1 VL
notes: Position 100 is Kabat numbering; also called W100Y variant
With B2, in assay [1], the “IC50 as fold increase compared to hu31A.v11 wild type” value was 3.46 fold. Besides, the “KD as fold increase” value in assay [3] was 234 fold.

B3: hu31A.v11 W100L (antibody, name in Kabat numbering, V domains shown)
VH: B1 VH with F104L
VL: B1 VL
notes: also called W100L variant
Turning to B3, the “KD as fold increase” value in assay [3] is 2410 fold.

B4: hu31A.v11 W100R (antibody, name in Kabat numbering, V domains shown)
VH: B1 VH with F104R
VL: B1 VL
notes: also called W100R variant
For the molecule B4, the “KD as fold increase” value in assay [3] amounted to 54 fold.

B5: hu31A.v11 W100V (antibody, name in Kabat numbering, V domains shown)
VH: B1 VH with F104V
VL: B1 VL
notes: Position 100 is Kabat numbering; also called W100V variant
With B5, the “KD as fold increase” value in assay [3] worked out at 821 fold.

B6: huE104.v2 IgG4 (S228P) (antibody)
heavy: not shown
light: DIQMTQSPSSLSASVGDRVTITCQSIKSVYNNRLGWYQQKPGKAPKLLIYETSILTSGVPSRFSGSGSGTDFTLTISSLQPEDFATYYCAGGFDRSGDTTFGQGTKVEIKRTVAAPSVFIFPPSDEQLKSGTASVVCLLNNFYPREAKVQWKVDNALQSGNSQESVTEQDSKDSTYSLSSTLTLSKADYEKHKVYACEVTHQGLSSPVTKSFNRGEC
notes: also called huE104.v2 Control
A word on the Kd: it is the free concentration of one partner at which half of the binding sites on the other are occupied at equilibrium, for simple one-to-one binding. As to B6, the Kd in assay [4] turned out to be 0.13 nM. Also, the “IC50 (nM), tryptase enzymatic assay” value in assay [5] is 2.8 nM.

B7: huE104.v11 IgG1 (antibody, V domains shown)
VH: EVQLVESGPGLVKPSETLSLTCTVSRFSLIGYAITWIRQPPGKGLEWIGGISSAATTFYSSWAKSRVTISVDTSKNQVSLKLSSVTAADTAVYYCARDPRGYGAALDRLDLWGQGTLVTVSS
VL: DIQMTQSPSSLSASVGDRVTITCQSIKSVYNNRLGWYQQKPGKAPKLLIYETSILTSGVPSRFSGSGSGTDFTLTISSLQPEDFATYYCAGGFDRSGDTTFGQGTKVEIK
notes: also called v11 (of huE104)
With B7, the Kd in assay [6] worked out at 0.32 nM.

B8: huE104.v10 IgG1 (chimeric light chain) (antibody, V domains shown)
VH: B7 VH with V71R
VL: AAVLTQTPASVSAAVGGTVSISCQSIKSVYNNRLGWYQQKPGQPPKLLIYETSILTSGVPSRFKGSGSETQFTLTISDVQADDAATYFCAGGFDRSGDTTFGGGTEVVVK
On to B8, for which the Kd in assay [6] turned out to be 0.26 nM.

B9: huE104.v4 IgG1 (antibody, V domains shown)
VH: EVQLVESGGGLVQPGGSLRLSCAVSRFSLIGYAITWVRQAPGKGLEWIGGISSAATTFYSSWAKSRSTISRDTSKNTVYLQMNSLRAEDTAVYFCARDPRGYGAALDRLDLWGQGTLVTVSS
VL: B7 VL
Consider B9, for which the Kd in assay [6] was 0.44 nM.

B10: huE104.v12 IgG1 (antibody, V domains shown)
VH: B7 VH with V71R, V78F
VL: B7 VL
notes: also called v12 (of huE104)
Regarding B10, in assay [6], the Kd turned out to be 0.12 nM.

B11: huE104.v8 IgG1 (antibody, V domains shown)
VH: B9 VH
VL: B7 VL with I2A, M4L, A44P, G69E, Y88F
For the molecule B11, the Kd in assay [6] came to 0.24 nM.

B12: rabbit anti-tryptase monoclonal antibody E104 (antibody, V domains shown)
VH: QSLEESGGGLFKPTDTLTLTCTVSRFSLIGYAITWVRQSPENGLEWIGGISSAATTFYSSWAKSRSTITRNTNENTVTLKMTSLTAADTATYFCARDPRGYGAALDRLDLWGQGTLVTVSS
VL: B8 VL with A81C
notes: Rabbit hybridoma antibody with rabbit kappa light chain; also called rab.E104; clone E104
Regarding B12, the binding result in assay [7] is “binds”.

The values are drawn from patent publication US20180230233A1 (Genentech, published 2018).
